Results from article PMC12102759 (2025).

B1: NOTCH4 peptide 1606-1621 (Neurogenic locus notch homolog protein 4), 16-mer library wild type / NSP9 (ORF1ab Nsp9, residues 4141-4253) (parent complex)
chain 1: QGAWLGAPEPWEPLLD
chain 2: NNELSPVALRQMSCAAGTTQTACTDDNALAYYNTTKGGRFVLALLSDLQDLKWARFPKSDGTGTIYTELEPPCRFVTDTPKGPKVKYLYFIKGLNNLNRGMVLGSLAATVRLQ

Variants of: B1
Test: bait immobilised on MaxiSorp plates (10 µg), library pre-cleared on GST, 2 h binding at 4 °C, five washes; one round per day, days 1-4; value from days 2 and 3

Variant | screen value
chain 1 P8T | 0.001 average fractional NGS count over selection days 2 and 3 (reads of this peptide / all reads for the bait, averaged over …
chain 1 P8F | 0.000628 average fractional NGS count over selection days 2 and 3 (reads of this peptide / all reads for the bait, averaged over …
chain 1 P8Q | 0.000198 average fractional NGS count over selection days 2 and 3 (reads of this peptide / all reads for the bait, averaged over …
chain 1 P8L | 0.000953 average fractional NGS count over selection days 2 and 3 (reads of this peptide / all reads for the bait, averaged over …
chain 1 P8N | 0.000215 average fractional NGS count over selection days 2 and 3 (reads of this peptide / all reads for the bait, averaged over …
chain 1 P8M | 0.00044 average fractional NGS count over selection days 2 and 3 (reads of this peptide / all reads for the bait, averaged over …
chain 1 P8A | 0.000677 average fractional NGS count over selection days 2 and 3 (reads of this peptide / all reads for the bait, averaged over …
chain 1 P8W | 0.000478 average fractional NGS count over selection days 2 and 3 (reads of this peptide / all reads for the bait, averaged over …
chain 1 P8S | 0.00076 average fractional NGS count over selection days 2 and 3 (reads of this peptide / all reads for the bait, averaged over …
chain 1 P8H | 0.00106 average fractional NGS count over selection days 2 and 3 (reads of this peptide / all reads for the bait, averaged over …
chain 1 P8Y | 0.000389 average fractional NGS count over selection days 2 and 3 (reads of this peptide / all reads for the bait, averaged over …
chain 1 P8D | 0.000161 average fractional NGS count over selection days 2 and 3 (reads of this peptide / all reads for the bait, averaged over …
chain 1 P8G | 0.000266 average fractional NGS count over selection days 2 and 3 (reads of this peptide / all reads for the bait, averaged over …
chain 1 P8I | 0.000952 average fractional NGS count over selection days 2 and 3 (reads of this peptide / all reads for the bait, averaged over …
chain 1 G6P | 0.00151 average fractional NGS count over selection days 2 and 3 (reads of this peptide / all reads for the bait, averaged over …
chain 1 G6D | 0.000544 average fractional NGS count over selection days 2 and 3 (reads of this peptide / all reads for the bait, averaged over …
chain 1 L5F | 0.000119 average fractional NGS count over selection days 2 and 3 (reads of this peptide / all reads for the bait, averaged over …
chain 1 E9F | 0.000135 average fractional NGS count over selection days 2 and 3 (reads of this peptide / all reads for the bait, averaged over …
chain 1 E9A | 0.000237 average fractional NGS count over selection days 2 and 3 (reads of this peptide / all reads for the bait, averaged over …

Variant | screen value
chain 1 E9Q | 0.000696 average fractional NGS count over selection days 2 and 3 (reads of this peptide / all reads for the bait, averaged over …
chain 1 E9S | 0.00294 average fractional NGS count over selection days 2 and 3 (reads of this peptide / all reads for the bait, averaged over …
chain 1 E9P | 0.00127 average fractional NGS count over selection days 2 and 3 (reads of this peptide / all reads for the bait, averaged over …
chain 1 E9L | 0.0321 average fractional NGS count over selection days 2 and 3 (reads of this peptide / all reads for the bait, averaged over …
chain 1 E9N | 0.000953 average fractional NGS count over selection days 2 and 3 (reads of this peptide / all reads for the bait, averaged over …
chain 1 E9M | 0.00679 average fractional NGS count over selection days 2 and 3 (reads of this peptide / all reads for the bait, averaged over …
chain 1 E9T | 0.00217 average fractional NGS count over selection days 2 and 3 (reads of this peptide / all reads for the bait, averaged over …
chain 1 E9Y | 0.000233 average fractional NGS count over selection days 2 and 3 (reads of this peptide / all reads for the bait, averaged over …
chain 1 L14P | 0.000127 average fractional NGS count over selection days 2 and 3 (reads of this peptide / all reads for the bait, averaged over …
chain 1 L14Y | 0.00146 average fractional NGS count over selection days 2 and 3 (reads of this peptide / all reads for the bait, averaged over …
chain 1 L14H | 0.000429 average fractional NGS count over selection days 2 and 3 (reads of this peptide / all reads for the bait, averaged over …
chain 1 L14F | 0.00284 average fractional NGS count over selection days 2 and 3 (reads of this peptide / all reads for the bait, averaged over …
chain 1 L14W | 0.000273 average fractional NGS count over selection days 2 and 3 (reads of this peptide / all reads for the bait, averaged over …
chain 1 L14K | 0.00411 average fractional NGS count over selection days 2 and 3 (reads of this peptide / all reads for the bait, averaged over …
chain 1 L14T | 0.00105 average fractional NGS count over selection days 2 and 3 (reads of this peptide / all reads for the bait, averaged over …
chain 1 L14R | 0.000211 average fractional NGS count over selection days 2 and 3 (reads of this peptide / all reads for the bait, averaged over …
chain 1 A7T | 0.00295 average fractional NGS count over selection days 2 and 3 (reads of this peptide / all reads for the bait, averaged over …
chain 1 A7E | 0.000192 average fractional NGS count over selection days 2 and 3 (reads of this peptide / all reads for the bait, averaged over …
chain 1 A7Q | 0.00107 average fractional NGS count over selection days 2 and 3 (reads of this peptide / all reads for the bait, averaged over …
